Reference: paper doi:10.1101/2024.06.26.600905 (bioRxiv, 2024)
Where no end group is shown, it is not given here. [ ]: non-standard residue; d: D form. pY = N[C@@H](Cc1ccc(OP(=O)(O)O)cc1)C(=O)O; TOTD membrane = not defined here; pS = N[C@@H](COP(=O)(O)O)C(=O)O

target: His6-SPAK CCT (mouse SPAK 459-556) (mouse) (UniProt Q9Z1W9); experiment: fluorescence polarisation

Chain of His6-OSR1 CCT (human OSR1 433-527) (from UniProt O95747 433-527) (domain or fragment) (O95747 433-527): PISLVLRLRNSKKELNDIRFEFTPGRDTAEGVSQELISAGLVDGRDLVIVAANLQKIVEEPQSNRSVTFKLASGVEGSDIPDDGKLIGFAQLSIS

Molecule | fold decrease in affinity relative to wild type [fold] | Ki [µM]
hWNK1 1253-1265 R1257A peptide … | 3.1 | –
hWNK4 1012-1024 wild type peptide … | – | 7.2
SAGHHFIVSPVPE [hWNK1 1253-1265 peptide, arginines replaced with histidine-histidine] | 7 | –
SAGHAFIVSPVPE [hWNK1 1253-1265 peptide, arginines replaced with histidine-alanine] | 11 | –
SAGARFIVSPVPE [hWNK1 1253-1265 peptide, first arginine of RRF to alanine] | 1.5 | –
SAGKKFIVSPVPE [hWNK1 1253-1265 peptide, arginines replaced with lysine-lysine] | – | 4.2

target: NH3+-NLVGRF-[DAP-FAM]-VSPVPE-COO- fluorescent probe peptide (human); experiment: fluorescence polarisation

Molecule | Kd [µM] | fold decrease in affinity relative to wild type [fold]
His6-OSR1 CCT (human OSR1 433-527) (from UniProt O95747 433-527) (domain or fragment) | 1.5 | –
purified SPAK CCT domain D477Q (domain or fragment) | – | 50
His6-SPAK CCT (mouse SPAK 459-556) (from UniProt Q9Z1W9 459-556) (domain or fragment) | 0.67 | –

target: His6-SPAK CCT (mouse SPAK 459-556) (mouse) (UniProt Q9Z1W9); experiment: fluorescence polarisation; remark: another data set of the same source

Molecule | Ki [µM] | fold decrease in affinity relative to wild type [fold]
H-SAGRRFIVSPVPE-OH [hWNK1 1253-1265 wild type peptide NH3+-…-COO-] | 2.5 | –
SAGRRFIV[pS]PVPE [hWNK1 1253-1265 peptide phosphorylated on serine at the +3 position] | – | 2.5

target: T1, His6-OSR1 CCT (human OSR1 433-527) (human, UniProt O95747 433-527); experiment: peptide or protein array
T1 sequence (O95747 433-527): as above

Molecule | binding result
Ac-QLVGRFQVTSSKE-{TOTD membrane} (reading uncertain) [hWNK4 1012-1024 wild type peptide QLVGRFQVTSSKE on the peptide array membrane] | binds

target: T1, His6-OSR1 CCT (human OSR1 433-527); experiment: fluorescence polarisation

Molecule | fold decrease in affinity relative to wild type [fold] | Ki [µM] | binding result
SAGRRFIV[pS]PVPE [hWNK1 1253-1265 peptide phosphorylated on serine at the +3 position] | ~2.5 | – | –
QLVGRFQVTSSKE [hWNK4 1012-1024 wild type peptide QLVGRFQVTSSKE] | – | 12.9 | –
QLVSRFQVTSSKE [hWNK4 1012-1024 peptide, glycine to serine at the -2 position] | – | – | binds
QLVGRFAVTSSKE [hWNK4 1012-1024 peptide, glutamine to alanine at the +1 position] | – | – | binds
QLVGRFQVASSKE [hWNK4 1012-1024 peptide, threonine to alanine at the +3 position] | – | – | binds
QLVGRFQLTSSKE [hWNK4 1012-1024 peptide, valine to leucine at the +2 position] | – | – | binds
QLVGRFQITSSKE [hWNK4 1012-1024 peptide, valine to isoleucine at the +2 position] | – | – | binds
LRRRNFKVMIYQD [Cavin1 146-158 motif peptide] | – | – | binds
LRRRNFKVMI[pY]QD [p-Tyr156 Cavin1 peptide (Cavin1 146-158)] | – | – | binds
H-SAGRRFIVSPVPE-OH [hWNK1 1253-1265 wild type peptide NH3+-SAGRRFIVSPVPE-COO-] | – | 5.1 | –
SAGAHFIVSPVPE [hWNK1 1253-1265 peptide, arginines replaced with alanine-histidine] | – | – | binds
SAGRAFIVSPVPE [hWNK1 1253-1265 R1257A peptide SAGRAFIVSPVPE] | ~3.1 | – | –
SAGHHFIVSPVPE [hWNK1 1253-1265 peptide, arginines replaced with histidine-histidine] | ~7 | – | –
SAGAKFIVSPVPE [hWNK1 1253-1265 peptide, arginines replaced with alanine-lysine] | – | – | binds
SAGHAFIVSPVPE [hWNK1 1253-1265 peptide, arginines replaced with histidine-alanine] | 11 | – | –
SAAARFIVSPVPE [hWNK1 1253-1265 peptide, -3 glycine and -2 arginine to alanine-alanine] | – | – | binds
SAVARFIVSPVPE [hWNK1 1253-1265 peptide, -3 glycine and -2 arginine to valine-alanine] | – | – | binds
SAGARFIVSPVPE [hWNK1 1253-1265 peptide, first arginine of RRF to alanine] | ~1.5 | – | –
SAGKAFIVSPVPE [hWNK1 1253-1265 peptide, arginines replaced with lysine-alanine] | – | – | binds
SAGKKFIVSPVPE [hWNK1 1253-1265 peptide, arginines replaced with lysine-lysine] | – | 16.3 | –
SAGRRFIVSAAPE [hWNK1 1253-1265 peptide, proline and valine to alanines at +4/+5] | – | – | binds
